Laboratory results published in patent publication US11498974 (BIOARCTIC, dated 2022).
Values belong to the molecule of their own block, whether it stands above or below them.

Key:
[1] = biological target: recombinant transferrin receptor protein (Sinobiological) (UniProt Q62351); test: competition ELISA on coated recombinant TfR; competitor 2.5 nM biotinylated scFv8D3
[2] = biological target: recombinant transferrin receptor protein (Sinobiological) (UniProt Q62351); test: competition TfR ELISA; references: 8D3 and 8D3-F(ab′)2-h158
Aβ protofibrils = Aβ protofibrils (UniProt P05067); test: inhibition ELISA; reference: Aβ monomers
[3] = biological target: recombinant transferrin receptor protein (Sinobiological) (UniProt Q62351); test: TfR competition ELISA, FIG. 2D; reference: RmAb158-scFv8D3
[4] = biological target: recombinant transferrin receptor protein (Sinobiological) (UniProt Q62351); test: competition TfR ELISA; reference: RmAb158-scFv8D3
[5] = biological target: T1, recombinant transferrin receptor protein (Sinobiological) (UniProt Q62351 89-763, limits assumed); test: competition ELISA on coated recombinant TfR; competitor 2.5 nM biotinylated scFv8D3
T1 construct: Construct limits are unknown; also called TfR; recombinant TfR protein

[6] = biological target: T1, recombinant transferrin receptor …; test: TfR competition ELISA, FIG. 2D; reference: RmAb158-scFv8D3

Sequence of recombinant transferrin receptor protein (Sinobiological) (UniProt Q62351) (Q62351 89-763 limits assumed): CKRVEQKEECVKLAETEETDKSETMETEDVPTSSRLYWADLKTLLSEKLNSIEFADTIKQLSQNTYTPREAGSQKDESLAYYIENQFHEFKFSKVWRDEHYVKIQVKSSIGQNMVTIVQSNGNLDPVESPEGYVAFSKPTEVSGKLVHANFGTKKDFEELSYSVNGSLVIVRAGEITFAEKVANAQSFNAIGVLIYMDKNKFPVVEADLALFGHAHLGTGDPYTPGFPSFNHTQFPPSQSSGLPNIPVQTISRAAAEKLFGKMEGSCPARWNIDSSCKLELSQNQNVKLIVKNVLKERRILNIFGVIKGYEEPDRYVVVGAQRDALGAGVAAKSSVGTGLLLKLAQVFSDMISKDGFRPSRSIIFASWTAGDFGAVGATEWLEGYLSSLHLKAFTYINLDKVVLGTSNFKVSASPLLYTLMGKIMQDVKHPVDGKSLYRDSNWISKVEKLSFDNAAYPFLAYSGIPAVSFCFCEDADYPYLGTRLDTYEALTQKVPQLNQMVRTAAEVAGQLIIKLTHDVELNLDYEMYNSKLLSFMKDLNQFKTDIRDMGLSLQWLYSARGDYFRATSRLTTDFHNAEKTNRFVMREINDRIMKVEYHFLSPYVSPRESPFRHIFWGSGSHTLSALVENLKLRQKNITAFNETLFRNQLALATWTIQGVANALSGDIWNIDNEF
T1 sequence (Q62351 89-763 limits assumed): as above

Molecule: RmAb158-scFv8D3 (bispecific antibody)
Kd [1]: 8 nM
fold lower avidity [2]: 10 fold
fold stronger binding to protofibrils than to monomers (Aβ protofibrils): 500 fold

B1: anti-TfR antibody 8D3 (antibody, V domains shown)
VH: EVQLVESGGGLVQPGNSLTLSCVASGFTFSNYGMHWIRQAPKKGLEWIAMIYYDSSKMNYADTVKGRFTISRDNSKNTLYLEMNSLRSEDTAMYYCAVPTSHYVVDVWGQGVSVTVSS
VL: DIQMTQSPASLSASLEEIVTITCQASQDIGNWLAWYQQKPGKSPQLLIYGATSLADGVPSRFSGSRSGTQFSLKISRVQVEDIGIYYCLQAYNTPWTFGGGTKLELK
Kd [5]: 0.8 nM
fold stronger binding [6]: ~10 fold

More lines, now with the values ahead:

Kd [1]: 0.69 nM
fold stronger binding [3]: 10 fold
Molecule: chemically conjugated fusion protein 8D3-F(ab′)2-h158 (bispecific antibody)

Kd [1]: 15 nM
fold higher Kd [4]: 2 fold
Molecule: scFv8D3
